Details: Aspergillus oryzae (strain ATCC 42149 / RIB 40), DSC, reversible: yes, whole UniProt chain shown; for denaturant m value / denaturant midpoint (higher = more stable) / unfolding free energy: Urea; for Tm / heat capacity change of unfolding / unfolding enthalpy (calorimetric): Thermal
[1] = pH 2.8, 27.75 °C, glycine 30 mM

B1: Guanyl-specific ribonuclease T1 wild type, P00651 (protein)
chain: MMYSKLLTLTTLLLPTALALPSLVERACDYTCGSNCYSSSDVSTAQAAGYQLHEDGETVGSNSYPHKYNNYEGFDFSVSSPYYEWPILSSGDVYSGGSPGADRVVFNENNQLAGVITHTGASGNNFVECT
With B1 the denaturant m value (pH 2.8, 17.1 °C, glycine 30 mM) was 2.44 kcal/mol/M, the “denaturant midpoint (higher = more stable)” value (“denaturant midpoint” for short) (pH 2.8, 17.1 °C, glycine 30 mM) was 2.25 M and the unfolding free energy (pH 2.8, 17.1 °C, glycine 30 mM) was 5.41 kcal/mol. For the same protein, the denaturant m value (pH 2.8, 21.1 °C, glycine 30 mM) was 2.43 kcal/mol/M, the “denaturant midpoint” value (pH 2.8, 21.1 °C, glycine 30 mM) was 2.02 M and the unfolding free energy (pH 2.8, 21.1 °C, glycine 30 mM) was 4.85 kcal/mol. The denaturant m value (pH 2.8, 24.9 °C, glycine 30 mM) was 2.33 kcal/mol/M, the “denaturant midpoint” value (pH 2.8, 24.9 °C, glycine 30 mM) was 1.8 M and the unfolding free energy (pH 2.8, 24.9 °C, glycine 30 mM) was 4.33 kcal/mol. The denaturant m value [1] was 2.45 kcal/mol/M, the “denaturant midpoint” value [1] was 1.44 M and the unfolding free energy [1] was 3.48 kcal/mol. The Tm (pH 2.8, glycine 30 mM) was 42.6 °C, the “heat capacity change of unfolding” value (pH 2.8, glycine 30 mM) was 2.2 kcal/mol/K and the “unfolding enthalpy (calorimetric)” value (pH 2.8, glycine 30 mM) was 95 kcal/mol. The denaturant m value (pH 5.95, 19.05 °C, MES 30 mM) was 1.19 kcal/mol/M, the “denaturant midpoint” value (pH 5.95, 19.05 °C, MES 30 mM) was 6.64 M and the unfolding free energy (pH 5.95, 19.05 °C, MES 30 mM) was 7.94 kcal/mol. For the same protein, the denaturant m value (pH 5.95, 22 °C, MES 30 mM) was 1.19 kcal/mol/M, the “denaturant midpoint” value (pH 5.95, 22 °C, MES 30 mM) was 6.32 M and the unfolding free energy (pH 5.95, 22 °C, MES 30 mM) was 7.55 kcal/mol. For the same protein, the denaturant m value (pH 5.95, 29.1 °C, MES 30 mM) was 1.18 kcal/mol/M, the “denaturant midpoint” value (pH 5.95, 29.1 °C, MES 30 mM) was 5.45 M and the unfolding free energy (pH 5.95, 29.1 °C, MES 30 mM) was 6.51 kcal/mol. The Tm (pH 5.95, MES 30 mM) was 52.8 °C, the “heat capacity change of unfolding” value (pH 5.95, MES 30 mM) was 1.49 kcal/mol/K and the “unfolding enthalpy (calorimetric)” value (pH 5.95, MES 30 mM) was 104 kcal/mol. The denaturant m value (pH 7, 19.2 °C, MOPS 30 mM) was 1.21 kcal/mol/M, the “denaturant midpoint” value (pH 7, 19.2 °C, MOPS 30 mM) was 5.26 M and the unfolding free energy (pH 7, 19.2 °C, MOPS 30 mM) was 6.29 kcal/mol. For the same protein, the denaturant m value (pH 7, 21.1 °C, MOPS 30 mM) was 1.1 kcal/mol/M, the “denaturant midpoint” value (pH 7, 21.1 °C, MOPS 30 mM) was 4.98 M and the unfolding free energy (pH 7, 21.1 °C, MOPS 30 mM) was 5.95 kcal/mol. For the same protein, the denaturant m value (pH 7, 23.05 °C, MOPS 30 mM) was 1.2 kcal/mol/M, the “denaturant midpoint” value (pH 7, 23.05 °C, MOPS 30 mM) was 4.86 M and the unfolding free energy (pH 7, 23.05 °C, MOPS 30 mM) was 5.81 kcal/mol. The denaturant m value (pH 7, 25 °C, MOPS 30 mM) was 1.2 kcal/mol/M, the “denaturant midpoint” value (pH 7, 25 °C, MOPS 30 mM) was 4.58 M and the unfolding free energy (pH 7, 25 °C, MOPS 30 mM) was 5.47 kcal/mol. The denaturant m value (pH 7, 27 °C, MOPS 30 mM) was 1.2 kcal/mol/M, the “denaturant midpoint” value (pH 7, 27 °C, MOPS 30 mM) was 4.14 M and the unfolding free energy (pH 7, 27 °C, MOPS 30 mM) was 4.95 kcal/mol. The denaturant m value (pH 7, 29 °C, MOPS 30 mM) was 1.27 kcal/mol/M, the “denaturant midpoint” value (pH 7, 29 °C, MOPS 30 mM) was 3.93 M and the unfolding free energy (pH 7, 29 °C, MOPS 30 mM) was 4.7 kcal/mol. The Tm (pH 7, MOPS 30 mM) was 48.2 °C, the “heat capacity change of unfolding” value (pH 7, MOPS 30 mM) was 1.72 kcal/mol/K and the “unfolding enthalpy (calorimetric)” value (pH 7, MOPS 30 mM) was 95.2 kcal/mol. For the same protein, the denaturant m value (pH 7.9, 19.05 °C, HEPPSO 30 mM) was 1.11 kcal/mol/M, the “denaturant midpoint” value (pH 7.9, 19.05 °C, HEPPSO 30 mM) was 4.19 M and the unfolding free energy (pH 7.9, 19.05 °C, HEPPSO 30 mM) was 5.01 kcal/mol. The denaturant m value (pH 7.9, 22 °C, HEPPSO 30 mM) was 1.25 kcal/mol/M, the “denaturant midpoint” value (pH 7.9, 22 °C, HEPPSO 30 mM) was 3.91 M and the unfolding free energy (pH 7.9, 22 °C, HEPPSO 30 mM) was 4.67 kcal/mol. The denaturant m value (pH 7.9, 25 °C, HEPPSO 30 mM) was 1.28 kcal/mol/M, the “denaturant midpoint” value (pH 7.9, 25 °C, HEPPSO 30 mM) was 3.44 M and the unfolding free energy (pH 7.9, 25 °C, HEPPSO 30 mM) was 4.11 kcal/mol. The denaturant m value (pH 7.9, 28.95 °C, HEPPSO 30 mM) was 1.19 kcal/mol/M, the “denaturant midpoint” value (pH 7.9, 28.95 °C, HEPPSO 30 mM) was 2.95 M and the unfolding free energy (pH 7.9, 28.95 °C, HEPPSO 30 mM) was 3.52 kcal/mol. For the same protein, the Tm (pH 7.9, HEPPSO 30 mM) was 43.3 °C, the “heat capacity change of unfolding” value (pH 7.9, HEPPSO 30 mM) was 1.65 kcal/mol/K and the “unfolding enthalpy (calorimetric)” value (pH 7.9, HEPPSO 30 mM) was 87.1 kcal/mol.

— FireProtDB (doi:10.1021/bi00432a026)
